US8093046B2, “CVN-12p1: a recombinant allosteric lectin antagonist of HIV-1 envelope gp120 interactions” (Philadelphia Health and Education Corporation d/b/c Drexel …, priority 2006, dated 2012)

Tests used:
HIV-1 BaL [1] = assay: Viral synergy study, HIV-1 BaL replication in PM-1 cells (gp120 ELISA); type: cell-based; conditions: 12p1 16-31 μM
Method: The curves are also shown for the dose response expected if the effects were simply additive.
Viral replication was determined by gp120 ELISA after a seven day incubation.
Dilutions and cells were in RPMI supplemented with 10% fetal calf serum, pen, strep and glutamine. Cells were incubated for 7 days and viral replication determined by gp120 ELISA. Each condition was performed in sextuplet and the mean used to calculate IC50 values. Analysis of combined effects was also carried out using the median effect principle developed by Chou and Talalay^39,40, and using the computer program CalcuSyn (BioSoft).

HIV-1YU2 gp120 = HIV-1YU2 gp120 (Human immunodeficiency virus type 1 group M subtype B, UniProt P35961); conditions: at 300 nM, about 250 RUs gp120 immobilized
Method: Approximately 250 RUs of either YU2 gp120 or the non-specific control antibody 2B6R were immobilized to a CM5 dextran chip by amine coupling. […] Signals from the reference 2B6R flow cell were used to correct for non-specific interactions and bulk effects (FIGS. 4A, B).
All surface plasmon resonance studies were performed on a Biacore 3000 (Biacore Inc., Uppsala, Sweden). CM5 dextran chip was derivatized by amine coupling with 250 RUs of YU2 gp120 or 2B6R (anti-IL5 receptor βchain) IgG as a control surface. […] Surfaces were regenerated with multiple short pulses of 10 mM glycine HCl, pH 1.7.

[2] = test system: gp120s from a variety of strains of HIV-1 of diverse clades and tropisms; assay: ELISA binding to gp120 of a variety of clades and tropisms; conditions: 50 nM, 100 ng gp120
Source text: Bars represent triplicate determination after the subtraction of non-specific binding to BSA. Error bars indicate one standard deviation.
We therefore tested the ability of the chimera to bind to the gp120s from a variety of strains of HIV-1 of diverse clades and tropisms.

YU2 gp120 / mAb 2G12 = YU2 gp120 / mAb 2G12 (Human immunodeficiency virus type 1 group M subtype B, UniProt P35961); conditions: ELISA, 50 μg/ml 2G12
Source text: Monomeric HIV-1YU2 gp120 was adsorbed onto ELISA plates overnight prior to blocking with 1% BSA.
This antibody recognizes the conformationally-flexible, CD4-unliganded form of gp120^53.

YU2 gp120 / mAb 17b [3] = target: T1, YU2 gp120 / mAb 17b (Human immunodeficiency virus type 1 group M subtype B, UniProt P35961); conditions: ELISA, 2 μg/ml 17b
YU2 gp120 / mAb F105 = target: T2, YU2 gp120 / mAb F105 (Human immunodeficiency virus type 1 group M subtype B, UniProt P35961); conditions: from literature; cited from earlier work
T2 construct: made in house; host or cells: gp120: Drosophila S2 cells

SHIV89.6P = conditions: cited from earlier work
[4] = test system: SIV/HIV-1 virus SHIV89.6P; conditions: gel formulations applied rectally, male macaques; cited from earlier work
HIV-1 BaL [5] = conditions: recombinant CVN; cited from earlier work
YU2 gp120 = YU2 gp120 (Human immunodeficiency virus type 1 group M subtype B, UniProt P35961); conditions: read-out: Equilibrium dissociation constant KD for binding to YU2; cited from earlier work
[6] = target: gp120 of HIV-1 JRFL and HIV-1 89.6; conditions: cited from earlier work
YU2 gp120 / mAb 17b [7] = target: T1, YU2 gp120 / mAb 17b; conditions: from literature; cited from earlier work

Molecule | Inhibitory effect on viral replication alone (HIV-1 BaL [1]) | Biosensor signal on immobilized YU2 gp120 (HIV-1YU2 gp120) | Binding to gp120s of diverse strains in ELISA [2] | Competition of gp120 binding to 2G12 antibody (YU2 gp120 / mAb 2G12) | Effect on interaction between 17b and gp120 (YU2 gp120 / mAb 17b [3]) | Effect on F105 binding to gp120 (YU2 gp120 / mAb F105) | Clinically adverse effects in in vivo assays (SHIV89.6P; macaques, gel) | CVN treated macaques not infected (SHIV89.6P; vaginal gel, SHIV89.6P challenge, controls 8 of 8 infected) | Protection against rectal challenge [4] | Cytotoxic effects in ectocervical explants (HIV-1 BaL [5]) | Infection of human ectocervical explants (HIV-1 BaL [5]) | Kd (YU2 gp120) | Affinity (KD) of interaction with gp120 [6] | Effect on 17b-gp120 interaction (YU2 gp120 / mAb 17b [7])
RINNIPWSEAMM [12p1] | only small inhibitory effect | – | – | – | – | – | – | – | – | – | – | – | – | –
CVN: 11 kDa protein originally isolated from the cyanobacterium Nostoc ellipsosporum, binds high mannose oligosaccharides of gp120 (protein) LGKFSQTCYNSAIQGSVLTSTCERTNGGYNTSSIDLNSVIENVDGSLKWQPSNFIETCRNTQLAGSSELAAECKTRAQQFVSTKINLDDHIANIDGTLKYEHHHHHH | – | 95 RU | behaved equivalently with all strains tested | show the expected competition | neither CVN nor L5-S12p1 had any effect | minimal effect | no clinically adverse effects | 15 of 18 | protected against challenge | no cytotoxic effects | blocked HIV-1 BaL infection | 0.011 µM | in the nM KD range | cannot inhibit this interaction
